Experimental data published in publication PMC10123104, “YbiB: a novel interactor of the GTPase ObgE” (Nucleic Acids Research, 2023).
Positions count from the first letter of the chain named. Names may count otherwise. “And” between values parts separate entries of the source, which are not always exact repeats. Equal entries are not always repeated.

B1: YbiB Arg92Glu, N-terminally His6-tagged (natural protein, E. coli, UniProt P30177 1-320, looked up)
chain: MDYRKIIKEIGRGKNHARDLDRDTARGLYAHMLNGEVPDLELGGVLIALRIKGEGEAEMLGFYEAMQNHTIKLTPPAGKPMPIVIPSYNGAEKQANLTPLLAILLHKLGFPVVVHGVSEDPTRVLTETIFELMGITPTLHGGQAQAKLDEHQPVFMPVGAFCPPLEKQLAMRWRMGVRNSAHTLAKLATPFAEGEALRLSSVSHPEYIGRVAKFFSDIGGRALLMHGTEGEVYANPQRCPQINLIDREGMRVLYEKQDTAGSELLPQAKDPETTAQWIERCLAGSEPIPESLKIQMACCLVATGEAATISDGLARVNQAF
notes: no measurement of its oligomeric state is reported; also called YbiB R92E; pET28a-ybiBR92E; source: E. coli BL21 (DE3) pLysS, purified (HisTrap FF, Superdex 200); not shown: His6, N-terminal, kept
B2: YbiB (E. coli TrpD2 protein), N-terminally His6-tagged, wild type (natural protein, UniProt P30177 1-320, looked up)
chain: B1 chain with E92R
notes: YbiB, TrpD2 family protein of Escherichia coli, open reading frame amplified from BW25113 genomic DNA; cloned in pET28a (NheI/EcoRI) behind His6 and a thrombin site; its numbers there are shifted by 1; No thrombin cleavage is described; also called YbiB WT; YbiB dimer; source: E. coli BL21 (DE3) pLysS, purified (HisTrap FF, Superdex 200); not shown: His6, N-terminal, kept
B3: full-length E. coli YbiB protein, N-terminally His6-tagged (natural protein, UniProt P30177 1-320, looked up)
chain: B1 chain with E92R
notes: homodimer; No cleavage of the His6-tag is told; the pull-down names the tag on the protein; also called YbiB WT; TrpD2 protein YbiB; source: E. coli BL21 (DE3) pLysS, purified (HisTrap, SEC); not shown: His6, N-terminal, kept
B4: YbiB Arg123Glu, N-terminally His6-tagged (natural protein, E. coli, UniProt P30177 1-320, looked up)
chain: B1 chain with E92R, R123E
notes: no measurement of its oligomeric state is reported; also called YbiB R123E; pET28a-ybiBR123E; source: E. coli BL21 (DE3) pLysS, purified (HisTrap FF, Superdex 200); not shown: His6, N-terminal, kept
B5: ObgE C-terminal peptide4 (residues 361-380 of ObgE) (peptide)
peptide: LEEIAEEDDEDWDDDWDEDD
notes: residues 375-380 (DWDEDD) are resolved in the crystal structure; also called peptide4-WW; SBL-OBGE-03; source: synthetic peptide (Fmoc SPPS, HPLC purified)
B6: peptide4-AA (variant of ObgE peptide4 with both Trp residues substituted by Ala) (peptide, UniProt P42641 361-380, looked up)
peptide: LEEIAEEDDEDADDDADEDD
notes: source: synthetic peptide (Fmoc SPPS, HPLC purified)
B7: ObgE C-terminal peptide4-AA (peptide)
peptide: LEEIAEEDDEDADDDADEDD
notes: free termini (H-...-OH); also called SBL-OBGE-06; source: synthetic peptide (in-house Fmoc SPPS, HPLC purified)

What was measured:
[1] = molecular target: T1, ObgE (E. coli Obg GTPase), N-terminally His6-tagged (E. coli, UniProt P42641 1-390); assay: ITC; MicroCal iTC200, 25°C, 20 mM HEPES pH 7.5, 150 mM NaCl, 5 mM MgCl2, 1 mM β-mercaptoethanol; ObgE or ObgE-derived peptide in the sample cell (50-75 µM), YbiB (WT or mutant) in the syringe (500 µM-1.4 mM); 'ligand in cell' function; biphasic isotherms fitted on a 'two sets of sites' model; subunit concentrations; parameters of each individual repeat; conditions: both partners purified
T1 construct: GTPase ObgE (Obg) of Escherichia coli, 390 residues; also called pET28a-obgE; source: E. coli BL21 (DE3) pLysS, purified (HisTrap FF, alkaline phosphatase treatment, Superdex 75), nucleotide-free; not shown: His6, N-terminal, kept
T1 sequence (P42641 whole entry): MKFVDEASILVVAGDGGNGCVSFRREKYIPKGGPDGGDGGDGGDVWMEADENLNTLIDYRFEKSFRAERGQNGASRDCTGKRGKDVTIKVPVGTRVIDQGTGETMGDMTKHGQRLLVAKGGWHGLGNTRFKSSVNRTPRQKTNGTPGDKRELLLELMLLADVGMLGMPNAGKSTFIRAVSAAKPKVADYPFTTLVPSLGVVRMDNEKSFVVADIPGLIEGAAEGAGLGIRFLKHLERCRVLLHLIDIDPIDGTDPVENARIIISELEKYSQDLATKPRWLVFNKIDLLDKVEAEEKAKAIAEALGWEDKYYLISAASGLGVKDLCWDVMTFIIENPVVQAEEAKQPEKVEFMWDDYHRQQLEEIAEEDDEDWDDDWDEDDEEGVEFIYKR

[2] = molecular target: B7; assay: as above; conditions: both partners purified
[3] = molecular target: T2, N-terminally His6-tagged ObgE protein (Escherichia coli Obg) (E. coli, UniProt P42641 1-390); assay: SEC-SAXS; pre-formed YbiB-ObgE complex (mixed 1:3, isolated on Superdex 200, 7.6 mg/ml); 20 mM HEPES pH 7.5, 150 mM NaCl, 5 mM MgCl2, 2 mM DTT, 5% glycerol; molar mass by Bayesian inference; conditions: both partners purified
T2 construct: GTPase ObgE of Escherichia coli, whole protein, ORF in pET28a; monomer by SEC-MALS; nucleotide-free after alkaline phosphatase treatment; also called full-length ObgE; not shown: His6, N-terminal, kept
T2 sequence (P42641 whole entry): as above

[4] = molecular target: the molecule itself; assay: SEC-MALS; Superdex 200 5/150 GL increase; ObgE and YbiB alone at 1.5 mg/ml; YbiB and ObgE mixed 1:3 (20 and 60 μM); 20 mM HEPES pH 7.5, 150 mM NaCl, 5 mM MgCl2, 5% glycerol, 2 mM DTT
[5] = molecular target: T2, N-terminally His6-tagged ObgE protein …; assay: as above; conditions: both partners purified
[6] = molecular target: T2, N-terminally His6-tagged ObgE protein …; assay: ITC; YbiB in the syringe (500 μM to 1.4 mM) titrated into ObgE constructs or ObgE-derived peptides in the cell (50-75 μM); 25°C; 20 mM HEPES pH 7.5, 150 mM NaCl, 5 mM MgCl2, 1 mM β-mercaptoethanol; 'two sets of sites' model with 'ligand in cell' for biphasic isotherms; subunit concentrations; conditions: both partners purified
[7] = molecular target: B3; assay: as above; conditions: both partners purified
[8] = molecular target: B2; assay: ITC; MicroCal iTC200, 25°C, 20 mM HEPES pH 7.5, 150 mM NaCl, 5 mM MgCl2, 1 mM β-mercaptoethanol; ObgE or ObgE-derived peptide in the sample cell (50-75 µM), YbiB (WT or mutant) in the syringe (500 µM-1.4 mM); 'ligand in cell' function; biphasic isotherms fitted on a 'two sets of sites' model; subunit concentrations; parameters of each individual repeat; conditions: both partners purified

Binder: B1
stoichiometry N [1]: 0.71 and 0.94 and 1.29

Binder: B2
stoichiometry N [2]: 0.66 and 0.632 and 0.64

Binder: B3
stoichiometry N [3]: 2 ObgE per YbiB dimer
stoichiometry N [4]: 2
stoichiometry N [5]: ~2 ObgE per YbiB dimer
KD of the first (high-affinity) binding event, two sets of sites [6]: 0.022 ± 0.001 µM
KD of the second (low-affinity) binding event, two sets of sites [6]: 5 ± 1 µM

Binder: B4
Kd [1]: 5 µM and 4 µM and 10 µM
stoichiometry N [1]: 1.14 and 0.99

Binder: B5
binding result [7]: binds

Binder: B6
Kd [7]: ~10 µM

Binder: B7
Kd [8]: 10 µM and 15 µM
